Measured values as given in patent US20250264483A1, “IDENTIFICATION OF PROTHROMBOTIC CONDITIONS” (Sydney Local Health District, priority 2020, published 2025).

Tested on: healthy donor platelets
Assay: Procoagulant platelet flow cytometry assay, healthy donor whole blood with VITT patient plasma
Type: cell-based, human
Conditions: exogenous purified human PF4 25 μg/mL, VITT positive (n=6) and negative (n=8) cases (FIG. 12A)

B1: PF4: native human PF4 purified from expired platelet concentrate (protein, UniProt P02776 32-101, looked up)
Platelet factor 4: EAEEDGDLQCLCVKTTSQVRPRHITSLEVIKAGPHCPTAQLIATLKNGRKICLDLQAPLYKKIIKKLLES
Q: B1 was tested. Which “effect on flow cytometry assay results” value did it give?
A: did not alter the results
